This is an account of results in paper PMC10320395, “Molecular insights into LINC complex architecture through the crystal structure of a luminal trimeric coiled-coil domain of SUN1” (Frontiers in Cell and Developmental Biology, 2023).

Values joined by “and” are separate entries in the source; they are usually repeats but may differ in a detail not shown here. Equal values may be shown once. Where no end group is shown, it is not given here.

Series [1] deals with the molecule itself. Briefly: SEC-MALS; cleaved SUN1 constructs at > 5 mg/mL; Superdex 200 Increase 10/300 GL, 20 mM HEPES pH 7.5, 150 mM KCl, 2 mM DTT.
Series [2] concerns the molecule itself. Briefly: crystal structure; SUN1 362–401 at 3.5 mg/mL, sitting drops, 20°C; spacegroup P2(1), a SUN1 trimer in the asymmetric unit; 2.07 Å.
Series [3] concerns the molecule itself. Briefly: SEC-MALS; MBP-SUN1 α1 at 20 mg/mL and 1 mg/mL after purification, and at 20 mg/mL after over-night incubation with 2 mM zinc acetate (trimer stabilised); Superdex 200 Increase 10/300 GL, 20 mM HEPES pH 7.5, 150 mM KCl, 2 mM DTT; trimer to dimers to monomers. (In gel filtration, larger molecules generally elute earlier.)

The stoichiometry N is a count of units in the complex or per binding partner.

B1: SUN1 α1-α2 (human SUN1 amino-acids 362–584) (domain or fragment, UniProt O94901 362-584, looked up)
chain: MSGVEQQVASLSGQCHHHGENLRELTTLLQKLQARVDQMEGGAAGPSASVRDAVGQPPRETDFMAFHQEHEVRMSHLEDILGKLREKSEAIQKELEQTKQKTISAVGEQLLPTVEHLQLELDQLKSELSSWRHVKTGCETVDAVQERVDVQVREMVKLLFSEDQQGGSLEQLLQRFSSQFVSKGDLQTMLRDLQLQILRNVTHHVSVTKQLPTSEAVVSAVSE
notes: human SUN1, Uniprot O94901, amino-acids 362–584 (α1 and α2 coiled-coils joined by their natural linker); Theoretical trimer 75 kDa; source: E. coli BL21 (DE3), purified (Ni-NTA, amylose, ion exchange, TEV cleavage, ion exchange, SEC); not shown: His, N-terminal, cleaved; MBP, N-terminal, cleaved
On to B1, for which the “stoichiometry N” value in series [1] came to 3.

B2: SUN1 α1-α2-SUN (entire structured luminal domain of human SUN1, amino-acids 362–785) (domain or fragment, UniProt O94901 362-785, looked up)
chain: MSGVEQQVASLSGQCHHHGENLRELTTLLQKLQARVDQMEGGAAGPSASVRDAVGQPPRETDFMAFHQEHEVRMSHLEDILGKLREKSEAIQKELEQTKQKTISAVGEQLLPTVEHLQLELDQLKSELSSWRHVKTGCETVDAVQERVDVQVREMVKLLFSEDQQGGSLEQLLQRFSSQFVSKGDLQTMLRDLQLQILRNVTHHVSVTKQLPTSEAVVSAVSEAGASGITEAQARAIVNSALKLYSQDKTGMVDFALESGGGSILSTRCSETYETKTALMSLFGIPLWYFSQSPRVVIQPDIYPGNCWAFKGSQGYLVVRLSMMIHPAAFTLEHIPKTLSPTGNISSAPKDFAVYGLENEYQEEGQLLGQFTYDQDGESLQMFQALKRPDDTAFQIVELRIFSNWGHPEYTCLYRFRVHGEPVK
notes: human SUN1, Uniprot O94901, amino-acids 362–785 (α1, α2 and the C-terminal SUN domain); Theoretical trimer 142 kDa; source: E. coli BL21 (DE3), purified (Ni-NTA, amylose, ion exchange, TEV cleavage, ion exchange, SEC); not shown: His, N-terminal, cleaved; MBP, N-terminal, cleaved
Regarding B2, the “stoichiometry N” value in series [1] was determined as 3.

B3: SUN1 α2 (second luminal coiled-coil domain of human SUN1, amino-acids 421–584) (domain or fragment, UniProt O94901 421-584, looked up)
chain: ETDFMAFHQEHEVRMSHLEDILGKLREKSEAIQKELEQTKQKTISAVGEQLLPTVEHLQLELDQLKSELSSWRHVKTGCETVDAVQERVDVQVREMVKLLFSEDQQGGSLEQLLQRFSSQFVSKGDLQTMLRDLQLQILRNVTHHVSVTKQLPTSEAVVSAVSE
notes: human SUN1, Uniprot O94901, amino-acids 421–584 (α2 coiled-coil domain); Theoretical monomer 19 kDa, so the cleaved protein stood in SEC-MALS; source: E. coli BL21 (DE3), purified (Ni-NTA, amylose, ion exchange, TEV cleavage, ion exchange, SEC); not shown: His, N-terminal, cleaved; MBP, N-terminal, cleaved
As to B3, the “stoichiometry N” value in series [1] is 3 and 2.

B4: SUN1 α1 (luminal coiled-coil domain of human SUN1, amino-acids 362–401) (domain or fragment, UniProt O94901 362-401, looked up)
chain: MSGVEQQVASLSGQCHHHGENLRELTTLLQKLQARVDQME
modifications: also: C376 partly oxidised to S-hydroperoxycysteine in crystal chain B, occupancy 0.62
notes: human SUN1, Uniprot O94901, amino-acids 362–401 (α1 coiled-coil domain of the luminal region); Expressed from pMAT11 as a TEV-cleavable His-MBP fusion; tags removed with TEV protease; About one zinc ion per trimer was found in solution; the crystal lacked zinc; also called SUN1 362–401; source: E. coli BL21 (DE3), purified (Ni-NTA, amylose, ion exchange, TEV cleavage, ion exchange, SEC); not …
As to B4, the binding result in series [2] is listed as “binds”.

B5: MBP-SUN1 α1 (MBP fusion of human SUN1 amino-acids 362–401) (domain or fragment, UniProt O94901 362-401, looked up)
chain: B4 chain
notes: human SUN1, Uniprot O94901, amino-acids 362–401 (α1 coiled-coil domain); The uncleaved His-MBP fusion from pMAT11, used to give greater molecular mass resolution in SEC-MALS; theoretical monomer 49 kDa; The His tag probably stays with the MBP (surmise); source: E. coli BL21 (DE3), purified (Ni-NTA, amylose, ion exchange); not shown: MBP, N-terminal, kept
Turning to B5, the “stoichiometry N” value in series [3] is 3 and 2.
